This note sets out measurements from PMC4017264 (Molecular Cell, 2014).

B1: HOIP extended PUB domain (aa 1–184) [not stated] / FITC-Ahx-labeled OTULIN PIM peptide (aa 49–67) [modified: FITC-Ahx label; FITC-Ahx label] [not stated] (parent complex)
chain 1: MPGEEEERAFLVAREELASALRRDSGQAFSLEQLRPLLASSLPLAARYLQLDAARLVRCNAHGEPRNYLNTLSTALNILEKYGRNLLSPQRPRYWRGVKFNNPVFRSTVDAVQGGRDVLRLYGYTEEQPDGLSFPEGQEEPDEHQVATVTLEVLLLRTELSLLLQNTHPRQQALEQLLEDKVED
chain 2: AEHEEDMYRAADEIEKEKE

One may read the Kd as the constant that tells how readily two partners part at equilibrium.

One assay covers variants of B1. Briefly: fluorescence polarisation; triplicate. (In fluorescence polarisation assays a small probe gives low polarisation when free and higher when bound to something large.)
Consider chain 2 AEHEEDMWRAADEIEKEKE [chain 2 Y8W], for which the Kd stood at 21.3 µM. On the same count and under the same terms, to chain 2 AEHEEDMFRAADEIEKEKE [chain 2 Y8F] belongs 64.5 µM. As for chain 2 AEHEEAMYRAADEIEKEKE [chain 2 D6A], the equilibrium dissociation constant (Kd) was determined as 11.2 µM.

The variants in another assay derive from B1. Briefly: fluorescence polarisation; triplicate. The source holds these as a separate data set.
In the case of chain 1 MPGEEEERAFLVAREELASALRRDSGQAFSLEQLRPLLASSLPLAARYLQLDAARLVRCNAHGEPRNYLNTLSTALNILEKYGRNLLSPQRPRYWRGVKFNNPAFRSTVDAVQGGRDVLRLYGYTEEQPDGLSFPEGQEEPDEHQVATVTLEVLLLRTELSLLLQNTHPRQQALEQLLEDKVED [chain 1 V104A], the equilibrium dissociation constant (Kd) worked out at 2.03 µM.
